The values that follow come from PMC2696590.

For test [1], the target named is SR142948. The test is described as follows: competition binding assay against [3H]-NT on intact E. coli cells. Conditions: 5 nM agonist [3H]-NT.
Test [2] addresses [^3H]-neurotensin. Put plainly: saturation binding assay on intact E. coli cells.
Test [3] addresses NTS1-7o, MBP and TrxA-H10 fusion (rat) (UniProt P20789). Put plainly: radioligand binding; saturation binding of 1 pM to 10 nM [^3H]-NT to intact E. coli cells expressing the receptor; TEBB buffer, no detergents, 2 hours on ice, GF/B filters; apparent KD, one-site with ligand depletion.
For test [4], the target named is NTS1-7l, MBP and TrxA-H10 fusion (rat) (UniProt P20789). Described as above.
Chain of NTS1-7l, MBP and TrxA-H10 fusion (rat) (P20789 43-424): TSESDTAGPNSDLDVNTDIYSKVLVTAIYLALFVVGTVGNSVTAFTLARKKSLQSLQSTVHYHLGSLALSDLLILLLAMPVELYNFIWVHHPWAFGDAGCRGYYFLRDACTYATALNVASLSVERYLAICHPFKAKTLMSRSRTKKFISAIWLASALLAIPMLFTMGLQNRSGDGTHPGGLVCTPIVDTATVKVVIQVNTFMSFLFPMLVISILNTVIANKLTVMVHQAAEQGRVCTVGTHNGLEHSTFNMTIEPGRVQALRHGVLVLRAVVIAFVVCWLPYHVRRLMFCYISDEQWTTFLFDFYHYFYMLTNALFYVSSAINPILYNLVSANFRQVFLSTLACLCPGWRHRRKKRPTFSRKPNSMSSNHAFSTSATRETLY

Chain of wild-type NTS1 (N-terminally truncated rat neurotensin type I receptor starting at Thr43), MBP and TrxA-H10 fusion (from UniProt P20789) A86L; I260A; F342A; F358A (P20789 whole entry A86L/I260A/F342A/F358A, looked up, the tested form may be a part): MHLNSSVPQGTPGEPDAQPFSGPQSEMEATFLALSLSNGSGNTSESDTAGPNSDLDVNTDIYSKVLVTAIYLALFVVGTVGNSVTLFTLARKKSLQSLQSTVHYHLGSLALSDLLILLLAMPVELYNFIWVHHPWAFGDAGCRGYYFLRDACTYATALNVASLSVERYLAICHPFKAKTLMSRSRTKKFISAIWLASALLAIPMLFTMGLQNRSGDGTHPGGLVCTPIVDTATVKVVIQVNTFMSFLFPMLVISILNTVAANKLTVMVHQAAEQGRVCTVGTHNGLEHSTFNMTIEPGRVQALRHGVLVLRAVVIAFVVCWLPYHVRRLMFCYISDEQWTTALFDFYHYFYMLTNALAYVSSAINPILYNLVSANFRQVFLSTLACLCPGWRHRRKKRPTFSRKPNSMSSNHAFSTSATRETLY
Chain of NTS1-7o, MBP and TrxA-H10 fusion (rat) (P20789 43-424): as the sequence (P20789 43-424) above
Chain of wild-type NTS1 (N-terminally truncated rat neurotensin type I receptor starting at Thr43), MBP and TrxA-H10 fusion (from UniProt P20789) NTS1-7f (P20789 whole entry, looked up, change not shown, the tested form may be a part): as the sequence (P20789 whole entry A86L/I260A/F342A/F358A, looked up, the tested form may be a part) above, with L86A, A260I, A342F, A358F counted along it
Chain of wild-type NTS1 (N-terminally truncated rat neurotensin type I receptor starting at Thr43), MBP and TrxA-H10 fusion (from UniProt P20789) NTS1-7e (P20789 whole entry, looked up, change not shown, the tested form may be a part): as the sequence (P20789 whole entry A86L/I260A/F342A/F358A, looked up, the tested form may be a part) above, with L86A, A260I, A342F, A358F counted along it
Chain of wild-type NTS1 (N-terminally truncated rat neurotensin type I receptor starting at Thr43), MBP and TrxA-H10 fusion (from UniProt P20789) NTS1-7l (P20789 whole entry, looked up, change not shown, the tested form may be a part): as the sequence (P20789 whole entry A86L/I260A/F342A/F358A, looked up, the tested form may be a part) above, with L86A, A260I, A342F, A358F counted along it
Chain of wild-type NTS1 (N-terminally truncated rat neurotensin type I receptor starting at Thr43), MBP and TrxA-H10 fusion (from UniProt P20789) NTS1-7o (P20789 whole entry, looked up, change not shown, the tested form may be a part): as the sequence (P20789 whole entry A86L/I260A/F342A/F358A, looked up, the tested form may be a part) above, with L86A, A260I, A342F, A358F counted along it
Chain of wild-type NTS1 (N-terminally truncated rat neurotensin type I receptor starting at Thr43), MBP and TrxA-H10 fusion (from UniProt P20789) NTS1-7g (P20789 whole entry, looked up, change not shown, the tested form may be a part): as the sequence (P20789 whole entry A86L/I260A/F342A/F358A, looked up, the tested form may be a part) above, with L86A, A260I, A342F, A358F counted along it
Chain of wild-type NTS1 (N-terminally truncated rat neurotensin type I receptor starting at Thr43), MBP and TrxA-H10 fusion (from UniProt P20789) A86L; F358A (P20789 whole entry A86L/F358A, looked up, the tested form may be a part): as the sequence (P20789 whole entry A86L/I260A/F342A/F358A, looked up, the tested form may be a part) above, with A260I, A342F counted along it

In the case of “wild-type NTS1 (N-terminally truncated rat neurotensin type I receptor starting at Thr43), MBP and TrxA-H10 fusion (from UniProt P20789) A86L; I260A; F342A; F358A”, in test [1], the Ki (usually the equilibrium dissociation constant of an inhibitor or competing ligand from its target) was found to be 1.2 nM. Still for that read-out and setting: with “wild-type NTS1 (N-terminally truncated rat neurotensin type I receptor starting at Thr43), MBP and TrxA-H10 fusion (from UniProt P20789) NTS1-7o” the figure was 0.22 nM. Substance “wild-type NTS1 (N-terminally truncated rat neurotensin type I receptor starting at Thr43), MBP and TrxA-H10 fusion (from UniProt P20789) NTS1-7f” returned a Kd in test [2] of 0.04 nM. The Ki in test [1] is 0.73 nM. In the same order, the values of “wild-type NTS1 (N-terminally truncated rat neurotensin type I receptor starting at Thr43), MBP and TrxA-H10 fusion (from UniProt P20789) NTS1-7g” are 0.21 nM and 2.8 nM. On to “wild-type NTS1 (N-terminally truncated rat neurotensin type I receptor starting at Thr43), MBP and TrxA-H10 fusion (from UniProt P20789) NTS1-7e”, for which, in test [2], the Kd was 0.14 nM. Moreover, in test [1], the Ki was 0.91 nM. In test [1], “wild-type NTS1 (N-terminally truncated rat neurotensin type I receptor starting at Thr43), MBP and TrxA-H10 fusion (from UniProt P20789) A86L; F358A” came in with a Ki of 0.58 nM. With [^3H]-neurotensin (peptide), the Kd was 0.03 nM in test [3] and 0.22 nM in test [4]. “wild-type NTS1 (N-terminally truncated rat neurotensin type I receptor starting at Thr43), MBP and TrxA-H10 fusion (from UniProt P20789) NTS1-7l” yielded a Ki in test [1] of 0.32 nM.
